Measured values as given in patent US20220073643A1 (NANJING GENSCRIPT BIOTECH, published 2022).

molecular target: human Claudin18.2 (human); assay: cell-based or functional assay

Binder | CDC % Relative activity [%] | CDC EC50 [mg/L]
252C10F6 (antibody, V domains shown) VH: QVHLKQSGRGLVQPSQSLSITCTVSGFSLPNYGVHWVRQPPGKGLEWLGVIWSGGNTDYNTVFKARLSITKDNSKSQVFFKMNSLQADDTAIYYCARNLYGNYDYAMDYWGQGTSVTVSS VL: DIVMTQSPATLSVTPGDRVSLSCRASQSISDYLHWYQQKSHESPRLLIKYASQSISGIPSRFSGSGSGSEFTLSINSVEPEDVGVYYCQNGHSFPFTFGSGTKLEIK | 3.42 | 53.6
181C7B2 (antibody, V domains shown) VH: QVQLKQSGPGLVQPSQSLSITCTVSGFSLTYYGVHWVRQSPGKGLEWLGVIWRGGNTDYNAAFISRLSINKDNSKSQVFFKMNSLQPNDTAIYYCARAAYYGNCFDYWGQGTTLTVSS VL: DIVMTQSPSSLTVTAGEKVTMSCKSSQSLLNSGNQKNYLTWYQQKPGQPPKLLIYWASTRESGVPDRFTGSGSGTDFTLTISSVQAEDLAVYYCQNNYIYPLTFGAGTKLELK | 44 | 3.59
250F4G4 (antibody, V domains shown) VH: QAYLQQSGAELVRSGASVKMSCKASGYTFTSHNMHWVKQTPGQGLEWIGYIYPGNGRTNYNQKFKGKATLTADTSSSTAYMQISSLTSEDSAVYFCTRDYYGNSFAYWGQGTLVTVSA VL: DIVMTQSPSSLTEKVGERVSMSCKSSQSLFNSGNQKNYLTWYQQKPGQPPKLLIYWASTRESGVPDRFTGSGSGTDFTLTISSVQAEDLAVYYCQNDYWYPFTFGAGTKLELK | 126 | 1.45
186G12H3 (antibody, V domains shown) VH: EVMLVESGGGLVKPGGSLKLSCAASRFTLSSYAMSWVRQTPEKRLEWVATISSGGSYTYYFDSVKGRFTISRDTAKNTLNLQMSSLRSEDTAMYYCARLYYGNALDYWGQGTSVTVSS VL: DIVMTQSPSSLTVTAGEKVTVSCKSSQSLLNSGNQKNYLTWYQQKPGQPPKLLIYWASTRESGVPDRFTGSGSGTDFTLTISSVQAEDLAVYYCQNNYIYPLTFGAGTTLELK | 114 | 1.39
248G8E8 (antibody, V domains shown) VH: QVQLKESGPGLVAPSQSLSITCTVSGFSLTTYGVSWVRQPPGKGLEWLGVIWGDGSTNYHSTLISRLRISKDKSKSQVFLKLNSLQTDDTATYYCAKAGRGNALDYWGQGTSVTVSS VL: DIVLTQSPSSLTVTAGEKVTMSCKSSQSLLNSGNQKNYLTWYQQKPGQPPKLLIYWASTRESGVPDRFTGSGSGTDFTLTISSVQAEDLAVYYCQNDYSFPLTFGAGTKLELK | 114 | 1.61
194A2F7 (antibody, V domains shown) VH: QIQLVQSGPELKKPGETVKISCKASGYTFTDYLIHWVKQAPGKGLKWMGWINTETGEPTYADDFKGRFALSLETSASTACLQINNLKNEDTATYFCARIYYGNSFDYWGQGTTLTVSS VL: DIVMTQSPSSLPVTAGEKVTMTCKSSQNLLNSGNQKSYLTWYQQKPGQPPKLLIYWASTRETGVPDRFTGSGSGTDFTLTISSVQAEDLAVYYCQNAYRFPFTFGAGTRLELK | 51.7 | 3.06
250F4G1 (antibody, V domains shown) VH: QAYLQQSGAELVRSGASVKMSCKASGYTFTSHNMHWVKQTPGQGLEWIGYIYPGNGRTNYNQKFKGKATLTADTSSSTAYMQISSLTSEDSAVYFCTRDYYGNSFAYWGQGTLVTVSA VL: DIVMTQSPSSLTEKVGERVSMSCKSSQSLFNSGNQKNYLTWYQQKPGQPPKLLIYWASTRESGVPDRFTGSGSGTDFTLTISSVQAEDLAVYYCQNDYWYPFTFGAGTKLELK | 112 | 1.64
194D3B2 (antibody, V domains shown) VH: QAYLQQSGAELVRSGASVKMSCKASGYPFTSYNMHWVKQTPGQGLEWVGYIYPGNGGTNYNQKFRDKATLTADTSSSTAYMQISRLTSDDSAVYFCLTGRGFAYWGQGTLVTVSA VL: DIVMTQSPSSLIVTPGERVTMSCKSSQSLLNSGNQKNYLTWYQQKPGQPPKLLIYRASTRESGVPDRFTGSGSGTDFTLTISSVQAEDLAVYYCQNDYSYPLTFGIGTKLELK | 574 | 0.275

The next lines start with the values.

CDC % Relative activity [%] | CDC EC50 [mg/L] | Binder
154 | 1.19 | 252E7C9 (antibody, V domains shown) VH: QTYLQQSGAELVRSGASVKMSCRTSGYSFTSHNMHWVKQTPGQGLEWIGYIYPGNGGSYYNQKFKGKAILTADTSSSTAYMQISSLTSEDSAVYFCTRDYYGNSFVYWGQGTLVTVSA VL: DVVMTQSPSSLTEKTGEKVSMSCKSSQSLLNSGNQKNYLTWYQQKPGQPPKLLIYWASTRESGVPDRFTGSGSGTDFTLTISSLQTEDLAIYYCQNNFRYPFTFGAGTKLELK
104 | 1.76 | 252F1B10 (antibody, V domains shown) VH: QAYLQQSGAELVRSGASVKMSCKASGYTFTSHNMHWVKQTPGQGLEWIGYIYPGNGGTNYNQKFKGKATLTADTSSSTAYMQINSLTSEDSAVYFCTRDYYGNSFAYWGQGTLVTVSA VL: DIVMTQSPSSLTEKAGERVSMSCKSSQSLFNSGNQKNYLTWYQQKPGQPPKLLIYWASTRESGVPDRFTGSGSGTDFTLTISSVQAEDLAVYYCQNDYRYPFTFGAGTKLELK
174 | 1.06 | 253E4F7 (antibody, V domains shown) VH: EIQLQQSGPELMKPGASVKMSCKASGYSFTSYYIHWVKQSHGKSLEWIGYIDPFNGGTRYNQKFEGKATLTVDKSSTTAYMHLSSLTSEDSTVYYCASLRFLAYWGQGTLVTVSA VL: DIVMTQSPSSLTVTAGEKVTMTCKSSQSLLNSGNQKNYLTWYQQKPGQPPKVLISRASTRQSGVPDRFTGSGSGTDFTLTISSVQAEDLAVYYCQNDYSYPLTFGAGTKLELK
142 | 1.05 | 258D11C4 (antibody, V domains shown) VH: QAYLQQSGAELVRSGASVKMSCKASGYTFSSHNMHWVKQTPGQGLEWIGYIYPGNGGTNYNQKFKGKATLTADTSSSTAYMQISSLTSEDSAVYFCTRDYYGNSFAYWGQGTLVTVSA VL: DIVMTQSPSSLTEKAGERVSMSCKSSQSLFNSGNQKNYLTWYQQKPGQPPKLLIYWASTRQSGVPDRFTGSGSGTDFTLTISSVQAEDLAVYYCQNDYWFPFTFGAGTKLELK
174 | 0.855 | 257F1E11 (antibody, V domains shown) VH: QAYLQQSGAELVRSGASVKMSCKASGYTFTSHNIHWVKQTPRQGLEWIGYIYPGNGGTNYNQKFKGKATLTADTSSSTAYMQISSLTSEDSAVYFCTRDYYGNSFAYWGQGTLVTVSA VL: DIVMTQSPSSLTEKAGERVSMSCKSSQSLFNSGNQKNYLTWYQQKPGQPPKLLIYWASTRESGVPDRFTGSGSGTDFTLTISSVQAEDLAIYYCQNDYWYPFTFGAGTKLELK
154 | 1.19 | 254A8D5 (antibody, V domains shown) VH: EVMLVESGGGLVKPGGSLKLSCAASGFTFSSYTVSWVRQTPEKRLEWVATSIVGSTYTYFPDSVKGRFTISRDFAKNTLFLQMSSLRSEDTAMYYCSRLGRGNAMDYWGQGTSVSVSS VL: DIVMTQSPSSLTVTAGEKVTLNCRSSQSLLNSGNQKNYLTWYQQKPGQPPKLLIYWASTRESGVPDRFTGSGSGTDFTLTISSVQADDLAVYYCQNGYSYPFTFGSGTKLEIK
487 | 0.305 | 257B1G9 (antibody, V domains shown) VH: QAYLQQSGAELVRSGASVKMSCKASGYTFTSHNMHWVKQTPGQGLEWIGYIYPGNGGTNYNQKFKGKATLTADTSSSTAYMQISSLTSEDSAVYFCTRDYYGNSFAYWGQGTLVTVSA VL: DIVMTQSPSSLTERAGERVSMSCKSSQSLFNSGNQKNYLTWYQQKPGQPPKLLIYWASTRESGVPDRFTGSGSGTDFTLTISSVQAEDLAVYYCQNDYRYPFTFGAGTKLELK
165 | 1.11 | 256C3D3 (antibody, V domains shown) VH: QAYLQQSGAELVRSGASVKMSCKASGYAFTSHNMHWVKQTPGQGLEWIGYISPGNGYTNYNQKFRGKATLTADTSSSTAYMQIGSLTSEDSAVYFCTRDYYGNSFAYWGQGTLVTVSA VL: DIVMTQSPSSLTEKAGERVSMSCKSSQSLFNSGNQKNYLTWYQQKPGQPPKLLIYWASTRESGVPDRFTGSGSGTDFTLTISSVQAEDLAVYYCQNNYWFPFTFGAGTKLELK
125 | 1.19 | 259C6F4 (antibody, V domains shown) VH: QAYLQQSGAELVRSGASVKMSCKASGYTFSSHNIHWVKQTPGQGLEWIGYIYPGNGDTNYNQKFKGKATLTADTSSSTAYMQISSLTSEDSAVYFCARDYYGNSFVYWGQGTLVTVSA VL: DIVMIQSPSSLTEKAGEKVSMSCKSSQSLLNSGNQKNYLTWYQQKPGQPPKLLIYWASTRESGVPDRFTGSGSGTDFTLTISSVQAEDLAVYYCQNAYRFPFTFGAGTKLELK
141 | 1.06 | 257G7F7 (antibody, V domains shown) VH: QAYLQQSGAELVRSGASVKMSCKASGYTFTSHNLHWVKQTPGQGLEWIGYIYPGNGNTNYNQKFKGKATLTADTSSSTAYMQISSLTSEDSAVYFCTRDYYGNSFAYWGQGTLVTVSA VL: DIVMTQSPSSLTEKAGERVSMSCKSSQSLFNSGNQKNYLTWYQQKPGQPPKLLIYWASTRESGVPDRFTGSGSGTDFTLTISSVQAEDLAVYYCQNNYWFPFTFGAGTKLELK
88.2 | 1.69 | 259B4D4 (antibody, V domains shown) VH: EIQLQQSGPELMKPGASVRISCKASGYSFTSYYMHWMKQSHVKSLEWIGYIDPFNGNTRYNQKFKDKATLTVDKSSTTAYMHLSSLTSEDSAVYFCASLRFFAYWGQGTLVTVSA VL: DIVMTQSPSSLTVTAGEKVTMSCNSSQSLLNSGNQKNYLTWYQQKPGQPPKLLIYWASSRESGVPDRFTGSGSGTDFTLTISTVQAEDLAVYYCQNDYSFPLTFGAGTRLELK
147 | 1.01 | 257G7B9 (antibody, V domains shown) VH: QAYLQQSGAELVRSGASVKMSCKASGYTFTSHNLHWVKQTPGQGLEWIGYIYPGNGNTNYNQKFKGKATLTADTSSSTAYMQISSLTSEDSAVYFCTRDYYGNSFAYWGQGTLVTVSA VL: DIVMTQSPSSLTEKAGERVSMSCKSSQSLFNSGNQKNYLTWYQQKPGQPPKLLIYWASTRESGVPDRFTGSGSGTDFTLTISSVQAEDLAVYYCQNNYWFPFTFGAGTKLELK
